# B1: NP20 (antibody, V domains shown)
# VH: EVQLVESGGGLVQPGGSLRLSCAASGFTINGYSIHWVRQAPGKGLEWVASIGPYGGFTYYADSVKGRFTISADTSKNTAYLQMNSLRAEDTAVYYCAGFGFYYWGQGTLVTVSS
# VL: DIQMTQSPSSLSASVGDRVTITCRASQDVGYGVAWYQQKPGKAPKLLISGASGLYSGVPSRFSGSGSGTDFTLTISSLQPEDFATYYCQQYSSFPLTFGQGTKVEIKR
# B2: NP16 (antibody, V domains shown)
# VH: EVQLVESGGGLVQPGGSLRLSCAASGFTIGNSGIHWVRQAPGKGLEWVAWIGPYWGFTSYADSVKGRFTISADTSKNTAYLQMNSLRAEDTAVYYCARFGNHWHLFMDYWGQGTLVTVSS
# VL: DIQMTQSPSSLSASVGDRVTITCRASQDVGSYVAWYQQKPGKAPKLLISWTTGLYSGVPSRFSGSGSGTDFTLTISSLQPEDFATYYCQQYFSYPVTFGQGTKVEIKR
# B3: NP6 (antibody, V domains shown)
# VH: EVQLVESGGGLVQPGGSLRLSCAASGFTINDGSIHWVRQAPGKGLEWVAGIGPFGGFTYYADSVKGRFTISADTSKNTAYLQMNSLRAEDTAVYYCARSGYSGSFDYWGQGTLVTVSS
# VL: DIQMTQSPSSLSASVGDRVTITCRASQDVYFGVAWYQQKPGKAPKLLIYGTSYLYSGVPSRFSGSGSGTDFTLTISSLQPEDFATYYCQQFSNWPITFGQGTKVEIKR
# B4: NP21 (antibody, V domains shown)
# VH: EVQLVESGGGLVQPGGSLRLSCAASGFTINGYGIHWVRQAPGKGLEWVAGIWPYGGSTFYADSVKGRFTISADTSKNTAYLQMNSLRAEDTAVYYCARFYNNHGGIMDYWGQGTLVTVSS
# VL: DIQMTQSPSSLSASVGDRVTITCRASQDVYFYVAWYQQKPGKAPKLLIYGSRWLYSGVPSRFSGSGSGTDFTLTISSLQPEDFATYYCQQYSNFPVTFGQGTKVEIKR
# B5: NP5 (antibody, V domains shown)
# VH: EVQLVESGGGLVQPGGSLRLSCAASGFTISNGSIHWVRQAPGKGLEWVAGIWPSGGSTSYADSVKGRFTISADTINNSAYLQMNSLRAEDTAVYYCARWNYWGQGTLVTVSS
# VL: DIQMTQSPSSLSASVGDRVTITCRASQDVGWSVAWYQQKPGKAPKLLIYGSRWLYSGVPSRFSGSGSGTDFTLTISSLQPEDFATYYCQQGYNGPLTFGQGTKVEIKR
# B6: NP7 (antibody, V domains shown)
# VH: EVQLVESGGGLVQPGGSLRLSCAASGFTISNGGIHWVRQAPGKGLEWVAGIGPYGGFTSYADSVKGRFTISADTSKNTAYLQMNSLRAEDTAVYYCARFYSNYYGYHGVMDYWGQGTLVTVSS
# VL: DIQMTQSPSSLSASVGDRVTITCRASQDVFGWVAWYQQKPGKAPKLLISYSASLYSGVPSRFSGSGSGTDFTLTISSLQPEDFATYYCQQYFNYPLTFGQGTKVEIKR
# B7: NP19 (antibody, V domains shown)
# VH: EVQLVESGGGLVQPGGSLRLSCAASGFTISSWGIHWVRQAPGKGLEWVAGIGPFWGYTSYADSVKGRFTISADTSKNTAYLQMNSLRAEDTAVYYCARFGVDNYGYMDYWGQGTLVTVSS
# VL: DIQMTQSPSSLSASVGDRVTITCRASQDVSGWVAWYQQKPGKAPKLLISWSTGLYSGVPSRFSGSGSGTDFTLTISSLQPEDFATYYCQQYFNFPVTFGQGTKVEIKR
# B8: NP22 (antibody, V domains shown)
# VH: EVQLVESGGGLVQPGGSLRLSCAASGFTISDWSIHWVRQAPGKGLEWVAGIWPYWGSTSYADSVKGRFTISADTSKNTAYLQMNSLRAEDTAVYYCARGFYSWFDYWGQGTLVTVSS
# VL: DIQMTQSPSSLSASVGDRVTITCRASQDVFSWVAWYQQKPGKAPKLLISSASSLYSGVPSRFSGSGSGTDFTLTISSLQPEDFATYYCQQSWDYPITFGQGTKVEIKR
# B9: NP3 (antibody, V domains shown)
# VH: EVQLVESGGGLVQPGGSLRLSCAASGFTISNYGIHWVRQAPGKGLEWVAGIWPFGGFTSYADSVKGRFTISADTSKNTAYLQMNSLRAEDTAVYYCARFHWNDHGYMDYWGQGTLVTVSS
# VL: DIQMTQSPSSLSASVGDRVTITCRASQDVGWYVAWYQQKPGKAPKLLIYSTTGLYSGVPSRFSGSGSGTDFTLTISSLQPEDFATYYCQQYYNYPITFGQGTKVEIKR
# B10: NP2 (antibody, V domains shown)
# VH: EVQLVESGGGLVQPGGSLRLSCAASGFTIGGGGIHWVRQAPGKGLEWVAGIWPYWGYTFYADSVKGRFTISADTSKNTAYLQMNSLRAEDTAVYYCARFWHGNLDVMDYWGQGTLVTVSS
# VL: DIQMTQSPSSLSASVGDRVTITCRASQDVYGYVAWYQQKPGKAPKLLIYGAAGLYSGVPSRFSGSGSGTDFTLTISSLQPEDFATYYCQQYSNFPLTFGQGTKVEIKR
# B11: NP17 (antibody, V domains shown)
# VH: EVQLVESGGGLVQPGGSLRLSCAASGFTISGGSIHWVRQAPGKGLEWVASIWPFGGSTFYADSVKGRFTISADTSKNTAYLQMNSLRAEDTAVYYCARFGHGHNVIMDYWGQGTLVTVSS
# VL: DIQMTQSPSSLSASVGDRVTITCRASQDVGYSVAWYQQKPGKAPKLLISSPGGLYSGVPSRFSGSGSGTDFTLTISSLQPEDFATYYCQQYYDYPVTFGQGTKVEIKR
# B12: NP25 (antibody, V domains shown)
# VH: EVQLVESGGGLVQPGGSLRLSCAASGFTIGGGFIHWVRQAPGKGLEWVASIWPYWGFTYYADSVKGRFTISADTSKNTAYLQMNSLRAEDTAVYYCARGSYGYSDYWGQGTLVTVSS
# VL: DIQMTQSPSSLSASVGDRVTITCRAGQDVSSGVAWYQQKPGKAPKLLISWTSFLYSGVPSRFSGSGSGTDFTLTISSLQPEDFATYYCQQYYDYPITFGQGTKVEIKR
# B13: NP15 (antibody, V domains shown)
# VH: EVQLVESGGGLVQPGGSLRLSCAASGFTISNWYIHWVRQAPGKGLEWVAGIGPYGGSTYYADSVKGRFTISADTSKNTAYLQMNSLRAEDTAVYYCARFHWDHLHGMDYWGQGTLVTVSS
# VL: DIQMTQSPSSLSASVGDRVTITCRASQDVDNNVAWYQQKPGKAPKLLISYSTGLYSGVPSRFSGSGSGTDFTLTISSLQPEDFATYYCQQYWNYPITFGQGTKVEIKR
# B14: NP18 (antibody, V domains shown)
# VH: EVQLVESGGGLVQPGGSLRLSCAASGFTISGGGIHWVRQAPGKGLEWVASIWPSWGSTSYADSVKGRFTISADTSKNTAYLQMNSLRAEDTAVYYCARFHNGGFLVMDYWGQGTLVTVSS
# VL: DIQMTQSSSSLSASVGDRVTITCRASQDVGYYVAWYQQKPGKAPKLLIYGPRFLYSGVPSRFSGSGSGTDFTLTISSLQPEDFATYYCQQYSNWPITFGQGTKVEIKR
# B15: NP24 (antibody, V domains shown)
# VH: EVQLVESGGGLVQPGGSLRLSCAASGFTIDDWYIHWVRQAPGKGLEWVAGIGPYGGFTYYADSVKGRFTISADTSKNTAYLQMNSLRAEDTAVYYCARGYYGSFDYWGQGTLVTVSS
# VL: DIQMTQSPSSLSASVGDRVTITCRASQDVGSSVAWYQQKPGKAPKLLIFYTSSLYSGVPSRFSGSGSGTDFTLTISSLQPEDFATYYCQQGWDSPVTFGQGTKVEIKR
# Legend:
# [1] = substrate: NP of B/Brisbane/60/2008(fluB) (influenza B virus B/Brisbane/60/2008); assay: ELISA on virus-infected fixed MDCK cells
# [2] = substrate: NP of A/Brisbane/59/2007(H1N1/H1B) (influenza A virus A/Brisbane/59/2007 (H1N1)); assay: ELISA on virus-infected fixed MDCK cells
# [3] = substrate: NP of A/Brisbane/59/2007(H1N1/H1B) (influenza A virus A/Brisbane/59/2007 (H1N1)); assay: sandwich ELISA, capture IgG; NP of lysed virus titrated; HRP-NP17 detection
# [4] = substrate: NP of A/Brisbane/59/2007(H1N1/H1B) (influenza A virus A/Brisbane/59/2007 (H1N1)); assay: sandwich ELISA, capture IgG; NP of lysed virus titrated; HRP-NP16 detection
Binder,EC50 [1] [nM],EC50 [2] [nM],EC50 [3] [nM],EC50 [4] [nM]
B1,4.88,,,
B2,,0.21,0.89,4.74
B3,,,,78.3
B4,,4.6,0.81,2.71
B5,,,1.82,4.02
B6,,,4.15,4.13
B7,,0.295,0.812,3.37
B8,3.92,7.11,102,59.4
B9,,0.521,1.04,2.36
B10,4.89,,,
B11,,,2.22,4.08
B12,2.17,4.83,,
B13,,0.668,0.926,4.61
B14,,7,66.4,
B15,3.17,,,

# Reference: patent publication US20230212554A1
